Our source for the Kd values is publication PMC4734655.

The Kd is a measure of binding affinity in units of concentration.

The test addresses recombinant human IL-8 (interleukin-8) (human). The test can be described thus: SPR; Biacore; IL-8 immobilised on a CM5 chip by amine coupling (Fc2), BSA on the reference cell (Fc1); soluble recombinant Mtb proteins as analytes at 2.5, 5, 10 and 20 uM; 22 °C, PBS pH 7.4 with 0.005% P20; flow 5 ul/min; one-to-one model.

B1: recombinant M. tuberculosis rGlmU (His-tagged, from pHis-glmU) (enzyme)
chain: MTFPGDTAVLVLAAGPGTRMRSDTPKVLHTLAGRSMLSHVLHAIAKLAPQRLIVVLGHDHQRIAPLVGELADTLGRTIDVALQDRPLGTGHAVLCGLSALPDDYAGNVVVTSGDTPLLDADTLADLIATHRAVSAAVTVLTTTLDDPFGYGRILRTQDHEVMAIVEQTDATPSQREIREVNAGVYAFDIAALRSALSRLSSNNAQQELYLTDVIAILRSDGQTVHASHVDDSALVAGVNNRVQLAELASELNRRVVAAHQLAGVTVVDPATTWIDVDVTIGRDTVIHPGTQLLGRTQIGGRCVVGPDTTLTDVAVGDGASVVRTHGSSSSIGDGAAVGPFTYLRPGTALGADGKLGAFVEVKNSTIGTGTKVPHLTYVGDADIGEYSNIGASSVFVNYDGTSKRRTTVGSHVRTGSDTMFVAPVTIGDGAYTGAGTVVREDVPPGALAVSAGPQRNIENWVQRKRPGSPAAQASKRASEMACQQPTQPPDADQTP
For the molecule B1, the dissociation constant Kd is 5.24 µM.

B2: recombinant M. tuberculosis rAtsG (His-tagged, from pHis-atsG) (enzyme)
chain: MTSERATGQRENLLIVHWHDLGRYLGVYHHPDVYSPRLDRLAAEGILFTRAHATAPLCTPSRGSLFTGRYPQSNGLVGLAHHGWEYRTGVQTLPQLLSESGWYSALFGMQHETSYPKRLGFDEFDVSNSYCEYVVAKAQDWLHNRVPALDGQRFLLTAGFFETHRPYPHERYRPADSAAVELPDYLPDTPEVRQDVAEFYGSIATADEAVGRLLDTLADTGLDASTWVVFVTDHGPAFPRAKSTLYDAGTGIALIIRPPTRRAMAPRVYDELFSGVDLVPTLLDLLRLEVPADVEGVSHAPALLAPDTENAAVRDHVYTAKTYHDSFDPIRAIRTKEYSYIENYAPRPLLDLPWDIQESPAGMAVAPLVKAPRPQRELYDLRADPTETNNLLAGDDSTQGVAAIAADLAVRLHDWRQRTADVIPSDFAGSRIAERYTETYLRIHRKTPTGRSAIAADRGIDEHCS
Turning to B2, the dissociation constant Kd stood at 6.83 µM.
